Measured values: publication PMC9067469

What was measured:
Assay in all cases: SPR
[1] = molecular target: IgG1 (pH-dependent anti-latent myostatin antibody with wild-type human IgG1 constant region) (human)
[2] = molecular target: V3-pI(A)-N434A (human IgG1 Fc variant G236N/H268D/Q311R/A330K/D413K/N434A of the pH-dependent anti-l (human))
[3] = molecular target: V3-N434A (human IgG1 Fc variant G236N/H268D/A330K/N434A of the pH-dependent anti-latent myostatin antibody) (human)
[4] = molecular target: V3 (human IgG1 Fc variant G236N/H268D/A330K of the pH-dependent anti-latent myostatin antibody) (human)
[5] = molecular target: V2 (human IgG1 Fc variant G236N/H268D of an anti-latent myostatin antibody) (human)
[6] = molecular target: V1 (human IgG1 Fc variant G236N of an anti-latent myostatin antibody) (human)

Row | Substance | relative binding per units (IgG1 = 1) (relative to IgG1) [1] | relative binding per units (IgG1 = 1) (relative to IgG1) [2] | further results
1 | cynomolgus FcRn (from UniProt Q8SPV9 24-365) (receptor) | – | – | Kd [1]: 1520 nM; Kd [2]: 355 nM; Kd [3]: 526 nM
2 | cynomolgus FcγRIIIa(R), extracellular region (from UniProt Q8SPW2 17-208) (receptor) | 1 | – | –
3 | cynomolgus FcγRIIIa(S), extracellular region (from UniProt Q8SPW2 17-208) (receptor) | 1 | – | –
4 | cynomolgus FcγRIIa1, extracellular region (receptor) | 1 | 1.97 | relative binding per units (IgG1 = 1) (relative to IgG1) [4]: 2; relative binding per units (IgG1 = 1) (relative to IgG1) [5]: 1.45
5 | cynomolgus FcγRIIa2, extracellular region (receptor) | 1 | 2.52 | relative binding per units (IgG1 = 1) (relative to IgG1) [4]: 2.56; relative binding per units (IgG1 = 1) (relative to IgG1) [5]: 1.89
6 | cynomolgus FcγRIIa3, extracellular region (receptor) | 1 | 2.76 | relative binding per units (IgG1 = 1) (relative to IgG1) [4]: 2.77; relative binding per units (IgG1 = 1) (relative to IgG1) [5]: 2.36
7 | human FcγRIIIa(F), extracellular region (from UniProt P08637 17-208) (receptor) | 1 | – | –
8 | human FcγRIa, extracellular region (from UniProt P12314 16-292) (receptor) | – | – | relative binding per units (IgG1 = 1) (relative to IgG1) [6]: 0.16

Now from value to substance, other results behind:

Row | relative binding per units (IgG1 = 1) (relative to IgG1) [1] | relative binding per units (IgG1 = 1) (relative to IgG1) [2] | Substance | further results
9 | 1 | 2.83 | cynomolgus FcγRIIb, extracellular region (receptor) | –
10 | 1 | 0.71 | cynomolgus FcγRIa, extracellular region (receptor) | –
11 | 1 | – | human FcγRIIIa(V), extracellular region (from UniProt P08637 17-208) (receptor) | –
